# Test results reported in a protein production outcome set (Wang et al. 2014).
# Assay: label from the status in PepcDB records
row,Sequence,protein production
1,MPTPPAASSLAAQMGESPAPLYARVKHMIALQIQNGTWPPHHRVPSESELVTQLGFSRMTINRALRELTVEGLLVRMQGVGTFVAEPKSQSALFEVHNIADEIAARGHRHTCKVMVLKEEAAGSERALALDMREGQRVFHSLIVHFENDIPVQIEDRFVNAQVAPDYLKQDFTLQTPYAYLSQVAPLTEGEHVVEAILAEADECKLLQIDAGEPCLLIRRRTWSGRQPVTAARLIHPGSRHRLEGRFTK,not failed
2,TFDNLNSMNGKGSSTDGINYVFDSLMSSSLDEPGVMYPLLAKTATFDPEQTHFVIFELNPKARFSDGTPVTAQDVKFSFDTYQSKANPGLQMYISDLAKTEVLSKYRVKFSFKSQNNAEMPLILASLPIYSQKDWKNRDFTRVTLQPILGSGPYLIERIDPS,failed
3,MTALPLSAVTVVSVCYNSDRLIRDLVTAIPDETPIILVDNGHTNTFADLPPHRNVIIVKLDHNLGFGRGCNAGADVAQTPWILFLNPDARLNPGAIEGLLQAAAQYPSAIAFNPRIYNEDGSPYFKRRSWLLPRQHYMKKGWPSADAVVPVLSGAALFVSKKSFDYIGGFDPSIFMYHEDDDLSLRLSALGELRFVRNSTVVHFAGYSSGRSPEIARFKAYHMAQSKIYAGQKHHRPFAKTSTLLQGCLLLLSPHVFFSARRRAKALGFLHGALAKIWSELLNAASTSSQKKTLEHHHHHH,not failed
4,DVVVVGSGVAGPIVARDVAKAGFSVLLVDKKPAIGTPKQCAEGINVNVFKEFDIPYDKRFINREIYGARIYSPSGYTAELRYDKVSGVILERKVFDKMLAYYAAKAGADVWARTEVIDLLRKEGKIMGVKAKHEGELVEIEAKIIVAADGVESTVARLAGINTYAPPHEFDSAYEYEMIIEGYDPDLIHLWFGNEIAPRGYVWVFPKDEDRANVGIGINSDNEKTAKYYLDKWLKENNIPTKKILEINVGLVPVGGFVRELVKENVAVVGDAARQVNPVHGGGMYEAMKAANILAKWIVKALEEENLELLKNYTKEWWEVEGPKMERLLKLRRAMEKLTDEDIDVFVQLLGGTDLEKLAGGNYFEVVKALMKHPKVLMSKRRLEILKALL,failed
5,MMDLHTHTVYSDGIGLIRDNVAWAEKRGLKIVGISDHIHFFTPSRFSAYINEINVIKEESEIVVLAGIEANILENGPDITDEFRKKLDYAIASVHEWFGRNGTHEYINYVKKAIMDDNVDIIGHFGNSFPWIGYPTREEIDEILDLAEAYGKAFEISARYKVPDLEFIRECVKRGIKLSLATDAHRPEDVGKVSWSLKMLEKAGGTKEDLIFSEYL,failed
6,MLGGVIVVKKAIAALGIGAVAVSVSSINASALEKGTVTASALNIRSGPSSDCDKVAKLYKGKTVEILEKSNGWYKVRVSSSVVGWGSAKYISTSGSSEGTSSQNNSTSSGTTISGNGKVNVSSRLNVRSGAGTNYSLVGKANNGDVVKLLEQSNGWYKIKLSNGVTGWASSQYISKTSEDVGTNNSSNSNSTNNSDKKPSSEESIEGKNGKVTSAVSLNVRSGPGTSYSIIGKLNGGDVVELKAKSNGWYKVKLSSGTIGWVSASYISETNEDTKEKPNSSSNQNSQSNSNSKPSFTGNSDKSTAKGSTIVDFAYTLIGIPYQWGASGPDKFDCSGFTQYVFKHSVGVSIPRVSREQANFGSAISMGNYAPGDLVYFDTDGDGTTNHVGIYVGNSKFIHCSGTQTNPNKVKVDNLTSSYWSKVLLGARRFV,failed
7,MTEYWVSQGNKWCEFCKIWIQNNPTSIRNHDLGKRHRECVDKKLTDMRERSAAKDKELKKNEKLLQQIEAKATRSYQKDIATAQQVAKANGAPEDGTSDWMLDSASGYYYNQTNGLHYDSQSGFYYSDSIGHWVTQDEAYAAVKTSSGTKVPLVKKPVSSSGAGPSVGKPPGRLVTASLNPKRAVKGAASSVDLGNNKRKRQDEKPKKVSAEEKAALKAREAARKRVEDREKPLLGLYNRPF,failed
8,MSFSRHIGVTMIDVVDLSRLQFALTAMYHFLFVPLTLGMAFLLAIMESMYVMTNKQIYKDMTKFWGKLFGINFALGVATGLTMEFQFGTNWSYYSHYVGDIFGAPLAIEALVAFFLESTFVGLFFFGWDRLSKRQHLAVTWLVALGSNFSALWILIANGWMQNPVGADFNFETMRMEMVSFSEVVLNPVAQVKFVHTVASGYTCGAMFILGISSYYLLKGRDIAFARRSFAIAASFGIAAILSTIVLGDESGYELGEVQKVKLAAIEAEWHTEPAPAAFTLFGVPNQETMHTDYAIKIPYVMGIIATRSFDEQVTGLRDLRDEHVERIRGGMYAYELLEKLRAGDKSEENMTAFDEVKGDLGYGLLLKRYTDNVVDATEEQIQAAADDSIPTVWPLFWSFRIMVACGFIMLFVFGAAFIQTCRQKIEQKQWILKAALLSIPLPWIAIEAGWFVAEYGRQPWAVGEILPVHVAASALTAGEIWTSLFAILALYTVFLIAEVYLMLKFARKGPSSLKTGRYHFEQNADSVEDKVSRQVEA,failed
9,MLSMVEVKIIKSDGFFNEVLISSDKKIHFDTAYAEGDFNCFGEGSIVSETTDDLKFKIANLIPGKYHFKIAIDQYKILREAENRSGSYSFSIWLEKPYHNPDYAQFCAIIDKKLMDVRIAVPKHSISVSIFTKDTLKPVYSRRASFDTFDAVEYVFDGMSDYYFEVDNSRLPKEGYFSPKVHIEHEGGSKIIYHIFPDRFFRVGPHLPTLSRWGDKPTFSSFFGGNLRGITEKIGYIKALNVDTIYLNPVYKSKSNHRYDVDDYFSIDGLLGGEQDFIELVNEAHENGIKIVADMVFNHTSTDFPYFLDALKNGKNSKYWNWYIFHGEGAAVFDGRAKGKTKPLYETFMGVGRMPKLNHKNAEVRKFCIDVMKYYKNKFGVDGFRYDVAHSIYPEFFLEAVKEFGNEMLHIGEAWCLPSMFMLSGYWNSFTNYYLRNAIIKFVREEINITEFYNMIQNMIISYGPLIQQNVMNILDSHDTERILRAFKGNKKKVKLAYSILFMFDGFATIYYGDEVGLDGGRDPDDRRCFPWDNMDEDMLQFLKKLGEIRRMYHTGSAGIITVEETQECKYITRLSGESIIKVAIAKKPVTLEGEIILSSCGEKTIYEGDFALSIAKYA,failed
10,MTLTKITAGKDDPDTGFAIATYNIHSCLGTDGAFRPDRVAQAIRALDADVIGLQEVGWALRGPSGFDQFAFLERETGYTVIPGLVRHHANAHFGNAILSRHPVESVAPLDLSLPYHSPRGGIDARIRVKGRSVRLINVHLGLIPLERRIQIRRIGLRLLDGWRGPALVCGDLNHWRRTSPAMQRLHRLLPGGVTGQTYPSALPTMMFDRILATGDLHLENHQVIRTEGTRVASDHLPLMAWFRFEGADVLSEDAA,failed
11,LLTSQIVDQYAEHIFYNSGAVGMALVVIDNNQVVNRSFGETQPGNNIRPRPDSLIRIASITKLMTSEIMVKLADDGIVKLTDPLKKYAPKGVNVPSYSAKQPIRLLHLASHTSGLPREQPGGPQKRPVFTWPTKDNRWQWLKLAKVTVPPGVKAAYSNLAYDLLADALSRAAGKPYAHLLRDKITAPLGMKNTTLTPTAEQCKRLMIGVGSSRCGNTVAAAGSGGIYSTPEDMQHWMQQFLASDNSAPKRSAKREQALYFQRGDLVSLKGMDVAGQADALGLGWVYMAPKADLPGIMQKTGGGGGFITYMAMVPEKNIGVFVVVTRSQLTKFSNMSDGVNQLVAELVK,not failed
12,MNAADRVMQSYGRCCASTGFFDDFYRHFLASSPQIRAKFATTDMTAQKHLLRAGIMNLVMYARGMSDSKLRALGASHSRAALDIRPELYDLWLDALLMAVAEHDRDCDAETRDAWRDVMGRGIAVIKSYY,not failed
13,AQSILEKADEIRFPQDSFQVNVAIRTAAPDHAEDLYRYQVLSKGNENSIVMITEPASERGQAILMKGRDLWVFMPSVSQPIRLSLSQRLTGQVANGDIARANFTGDYHPQLLRNESIDDEDYYVLELTGIDRSVTYQKVLLWVNQSNFRPYKAEFYSVSGRLLKTSRYENFDNILGEMRPTRIIMEDALKSGEVSVLDYSDMKLRDLPDKIFTKDYLKR,not failed
14,MIRLTIEETNLLSIYNEGGKRGLMENINAALPFMDEDMRELAKRTLAKIAPLTENEYAELAIFAADEVLEHHHHHH,not failed
15,MSLSTAADLLRQGAACSVLYLTSVETESLTGPQAVARASSAALSCSPRPTPAVVHFKVSAQGITLTDNQRKLFFRRHYPVNSITFSSTDPQDRRWTNPDGTTSKIFGFVAKKPGSPWENVCHLFAELDPDQPAGAIVTFITKVMLGQRKEGHHHHHH,not failed
16,MKVALGGTFEPLHEGHKKLIDVAIKLGGRDITIGVTSDRMARARIRSVLPFAIRAENVKRYVMRKYGFEPEIVKITNPYGKTLDVDFEYLVVSPETYEMALKINQKREELGKRKITIVKVDWMMAEDGKPISSTRIKRGEID,not failed
17,MYTYKLQDEKPICSEKLKRLYDSVGWWPERKEIDIQKMLKNSIAIGVWKENELIGFARVVSDGVFRAYLEDVVVHESVRNKGIGEKMLTMLLEEISHINIVSLFCGEKLIKFYGQQQFQVTK,failed
18,MLKEILSSALLMLIMIDPSDKILLVSLLREDFHIEDVKSLIIRANLIGFILLLLFAVAGKIILQDIFHIELDALRVAGGFVLFKIGLEALEGGGMVTIKREKNILALAAVPVATPLIAGPAAITAAITLTAEHGIIVSIVGTLIAIAITAALMMIALYLMRGISKTALSVTIRIIGLFIMAIGAQMMITGAGGIVLNLIKGA,failed
19,MTPYTEVELTLIQYVLVVVSGFIIGLILGLIGGGGSILAVPLLLYFVGLGNDSSSFGNYSNITHLVLGTSALAVGLNAYINSFIHWRKGNVKVFEGVVFTIPGVIGSILGAYFGYLTTGNLILIMFGIVMILIGLRMIKSKCKEGSNETKGSGDTGVVKSKDRINIRIIYTGFLVGLASGFLGIGGGFLIVPALLFSTSMSIISAIGTSLISVGTFGLSTALTYASYGEIDYILSLILLAGGVGGGYIGTLLASKSPRSTLRKVFGVVLIVVAIYIIYRNLLL,failed
20,MCAFNGAALTALGISHSALLAHSPQGCEYLVNNAFASQECDYMETMTLCTKLCVDEIVHGGEDILARTIREVKDLPISALFVLSACGPEIVGDDIVGVCEALQPEVKFRLVPIESAGFRGSQYDGIDIAMDTILKKLVKDDVEKIPGSVCLEHHHHHH,failed
21,MKRKTIRILLISSGLILILLVGYRLYLEYQTDIQLFLNPKASKTQLLERIRSHGFSAALLLVFLTAIMCAVPGIPTSVIGVIAGLSFGPFSGTLINVLGNSMGNLVAIFLMHHIKFLDKKTETNHWVQSIRRMKHPKIGIMVGYMIPIIPSSVINFAADTMQLPLKNLIAAIFIGVIPSSILYACGGEALFHGYNKTAVLLIVSVLLFVGLVVIIEKDRKRFQKTVL,failed
22,MKNPQSKADDILQCARTLIIRGGYNSFSYADISQVVGIRNASIHHHFPSKSDLVCKLVSQYRQEAEAGIAELEKNISDPLEQLRAYIGYWEGCIADATHPFCVCALLASEIPVLPETVVLEVRAHFRSLSDWLTAVLERGIAQGRLVLTGTARANAEIFMATVHGAMLSARAHGDAATFGAITRPMLERITA,not failed
23,MPDSPLPLYHKVYLLLKQRLQSGGFALNAAMPGENALAAEYGVSRLTIRRSLEALESEGLIERRQGRGTFAAEGAILSAPQHSADIDTLMAHLARMGMHTQVNLLELDTVPATPQVAAQLELPAGAPVQRAVRVRSHQGLPFSYLVTYVPGEIGQRIRREDLGAKPLLAIFRDLGVRVARAQQSISAVLAEPGTAGALDVPVGSALLSLQRLVRDDAGRPVEWLHALYRPDRYEYRLDMQAHDTPGQPTWLPAGAPRRA,failed
24,WRKDIVLPKDQAKGVRPYNPKFKDSEYFSRYNALINDERLIEFAKKNNYKITFFPHPDIQQQIVDFEKHDYVEFADYNSSYQMLFNSSNIMITDFSSVAFDFAYEKKPVIYYQYEKSYHFKLDYYDYKKMGFGDVLENHNSLVDKVIYYMKNNSRMEDKYRKRVDNFFAYTDKNNRNRIYNAILE,not failed
